Results from article PMC6555819, “Comprehensive study of nuclear receptor DNA binding provides a revised framework for understanding receptor specificity”.
Positions count from the first letter of the chain named.

B1: NRC3_wobSeed49_DR2_T8G_o1 (dsDNA)
DNA 1: GCCAAACGAGGTCAAGAGGTCAAAGTCCGCTTCCCGGCGATTGACAGCGTAGAATGAAGG
DNA 2: CCTTCATTCTACGCTGTCAATCGCCGGGAAGCGGACTTTGACCTCTTGACCTCGTTTGGC
B2: NRC3_wobSeed73_DR3_A18G_o1 (dsDNA)
DNA 1: GCCAAACTAGGTCACAGGGGTCAAAGTCCGTGCGTAGCGATTGACAGCGTAGAATGAAGG
DNA 2: CCTTCATTCTACGCTGTCAATCGCTACGCACGGACTTTGACCCCTGTGACCTAGTTTGGC
B3: NRC3_wobSeed133_DR5_C18T_o1 (dsDNA)
DNA 1: GCCGTCCAAGGTCAATGTTAGGTCAGTGAAAGCATTGCGATTGACAGCGTAGAATGAAGG
DNA 2: CCTTCATTCTACGCTGTCAATCGCAATGCTTTCACTGACCTAACATTGACCTTGGACGGC
B4: NRC3_wobSeed94_DR3_G13C_o1 (dsDNA)
DNA 1: GCCTACCAAGGTCAACAAGGTCGTTGATTACTATTCGCGATTGACAGCGTAGAATGAAGG
DNA 2: CCTTCATTCTACGCTGTCAATCGCGAATAGTAATCAACGACCTTGTTGACCTTGGTAGGC
B5: NRC3_random_hg19_379_o1 (dsDNA)
DNA 1: GCAGGCTGGCAGATGGTTCAACAGGTGAGTAAAGCAGCGATTGACAGCGTAGAATGAAGG
DNA 2: CCTTCATTCTACGCTGTCAATCGCTGCTTTACTCACCTGTTGAACCATCTGCCAGCCTGC
B6: NRC3_wobSeed120_DR4_G22T_o1 (dsDNA)
DNA 1: GCCCGAGTAGGTTACGAGGGGTCATTCAGTGCGAATGCGATTGACAGCGTAGAATGAAGG
DNA 2: CCTTCATTCTACGCTGTCAATCGCATTCGCACTGAATGACCCCTCGTAACCTACTCGGGC
B7: NRC3_random_hg19_402_o1 (dsDNA)
DNA 1: GCTGAGGTGCTTCAGAGATGTCCACTCCTGCTGGCTGCGATTGACAGCGTAGAATGAAGG
DNA 2: CCTTCATTCTACGCTGTCAATCGCAGCCAGCAGGAGTGGACATCTCTGAAGCACCTCAGC
B8: NRC3_random_hg19_119_o1 (dsDNA)
DNA 1: GCCCTACCCTCCTCCCTGTCACTCGCCAGTCCCAGCGCGATTGACAGCGTAGAATGAAGG
DNA 2: CCTTCATTCTACGCTGTCAATCGCGCTGGGACTGGCGAGTGACAGGGAGGAGGGTAGGGC
B9: NRC3_wobSeed111_DR4_T8G_o1 (dsDNA)
DNA 1: GCCGAACGAGGTCAGAACAGGACAGTGAAGGATGATGCGATTGACAGCGTAGAATGAAGG
DNA 2: CCTTCATTCTACGCTGTCAATCGCATCATCCTTCACTGTCCTGTTCTGACCTCGTTCGGC
B10: NRC3_random_hg19_91_o1 (dsDNA)
DNA 1: GCGACTCAGACACTGCTGGCACCCGACACTGCTCTCGCGATTGACAGCGTAGAATGAAGG
DNA 2: CCTTCATTCTACGCTGTCAATCGCGAGAGCAGTGTCGGGTGCCAGCAGTGTCTGAGTCGC
B11: NRC3_random_hg19_156_o1 (dsDNA)
DNA 1: GCGCCACCAGGCCTGCCTTACAAGAGCTCCTGAAGAGCGATTGACAGCGTAGAATGAAGG
DNA 2: CCTTCATTCTACGCTGTCAATCGCTCTTCAGGAGCTCTTGTAAGGCAGGCCTGGTGGCGC
B12: NRC3_wobSeed133_DR5_G26C_o1 (dsDNA)
DNA 1: B3 DNA 1 with T18C, G26C
DNA 2: B3 DNA 2 with C35G, A43G
B13: NRC3_wobSeed85_DR3_A16T_o1 (dsDNA)
DNA 1: GCCGTCCAAGGTCAGTGAGGTCAGTGAATGCCGAGTGCGATTGACAGCGTAGAATGAAGG
DNA 2: CCTTCATTCTACGCTGTCAATCGCACTCGGCATTCACTGACCTCACTGACCTTGGACGGC
B14: NRC3_random_hg19_227_o1 (dsDNA)
DNA 1: GCGAAGGAAGGAAGGAAGGAAGGAAGGAAGGAAGGCGCGATTGACAGCGTAGAATGAAGG
DNA 2: CCTTCATTCTACGCTGTCAATCGCGCCTTCCTTCCTTCCTTCCTTCCTTCCTTCCTTCGC
B15: NRC3_random_hg19_233_o1 (dsDNA)
DNA 1: GCTACAAAGTACTGGGATCCTCCCAACAGCCTGCAAGCGATTGACAGCGTAGAATGAAGG
DNA 2: CCTTCATTCTACGCTGTCAATCGCTTGCAGGCTGTTGGGAGGATCCCAGTACTTTGTAGC
B16: NRC3_random_hg19_80_o1 (dsDNA)
DNA 1: GCCAATACAGCTTTGGCTTCTGCAGAATCTGAGGAAGCGATTGACAGCGTAGAATGAAGG
DNA 2: CCTTCATTCTACGCTGTCAATCGCTTCCTCAGATTCTGCAGAAGCCAAAGCTGTATTGGC
B17: NRC3_random_hg19_372_o1 (dsDNA)
DNA 1: GCGAGGTTGCAGTGAGCCAAGATTGCACCACTGCACGCGATTGACAGCGTAGAATGAAGG
DNA 2: CCTTCATTCTACGCTGTCAATCGCGTGCAGTGGTGCAATCTTGGCTCACTGCAACCTCGC
B18: NRC3_random_hg19_47_o1 (dsDNA)
DNA 1: GCGCCTTCAGGAACATGCTATTCTGTCTATGGAGTCGCGATTGACAGCGTAGAATGAAGG
DNA 2: CCTTCATTCTACGCTGTCAATCGCGACTCCATAGACAGAATAGCATGTTCCTGAAGGCGC
B19: NRC3_wobSeed138_DR5_C13G_o1 (dsDNA)
DNA 1: GCGATACAGGGTGAGCTAGAGGCCAGAGTATGGAAAGCGATTGACAGCGTAGAATGAAGG
DNA 2: CCTTCATTCTACGCTGTCAATCGCTTTCCATACTCTGGCCTCTAGCTCACCCTGTATCGC

Each binder was assayed against RARg:RXRa (Homo sapiens, UniProt P13631;P19793 full;full) (assay: no ligand; PBM; 270 nM : 90 nM RXRa; PBS pH 7.4, 2% milk, 0.02% Triton X-100, 1 mM DTT, BSA, 0.4 mg/ml salmon testes DNA). Details: tags: His kept;His cleaved; copies: 1;1; label: surface-attached array probe.
Procedure, shortened: (§1)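 For binding z-scores, the reference was random background probes on custom Agilent 4×180K protein-binding microarrays. These arrays were incubated 1 h with ligand-free nuclear receptor dimers in PBS pH 7.4, 2% milk, 0.02% Triton X-100, 1 mM DTT, 0.2 mg/mL BSA and 0.4 mg/ml salmon testes DNA. Fluorescence was scanned after antibody detection of each partner (one per run) and regression-normalized.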

Binder | binding signal
B1 | 9.13 PBM z-score against 500 random probes
B2 | 7.8 PBM z-score against 500 random probes

The binders below were run against RARb:RXRa (Homo sapiens, UniProt P10826;P19793 full;full) in the same assay as above. Details: tags: His kept;His cleaved; copies: 1;1; label: surface-attached array probe.
RARb:RXRa, sequence (P10826 whole entry, chain 1 of 2): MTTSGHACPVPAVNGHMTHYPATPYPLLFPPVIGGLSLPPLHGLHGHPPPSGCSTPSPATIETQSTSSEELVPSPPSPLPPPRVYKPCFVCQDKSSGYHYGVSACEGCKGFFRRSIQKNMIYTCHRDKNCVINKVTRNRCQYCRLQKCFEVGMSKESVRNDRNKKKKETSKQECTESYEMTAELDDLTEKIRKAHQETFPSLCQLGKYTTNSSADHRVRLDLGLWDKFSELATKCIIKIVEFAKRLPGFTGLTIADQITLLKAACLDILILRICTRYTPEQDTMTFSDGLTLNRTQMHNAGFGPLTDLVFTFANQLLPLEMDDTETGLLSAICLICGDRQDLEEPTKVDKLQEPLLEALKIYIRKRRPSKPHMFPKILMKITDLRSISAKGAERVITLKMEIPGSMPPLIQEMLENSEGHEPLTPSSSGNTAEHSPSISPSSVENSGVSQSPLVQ
RARb:RXRa, sequence (P19793 whole entry, chain 2 of 2): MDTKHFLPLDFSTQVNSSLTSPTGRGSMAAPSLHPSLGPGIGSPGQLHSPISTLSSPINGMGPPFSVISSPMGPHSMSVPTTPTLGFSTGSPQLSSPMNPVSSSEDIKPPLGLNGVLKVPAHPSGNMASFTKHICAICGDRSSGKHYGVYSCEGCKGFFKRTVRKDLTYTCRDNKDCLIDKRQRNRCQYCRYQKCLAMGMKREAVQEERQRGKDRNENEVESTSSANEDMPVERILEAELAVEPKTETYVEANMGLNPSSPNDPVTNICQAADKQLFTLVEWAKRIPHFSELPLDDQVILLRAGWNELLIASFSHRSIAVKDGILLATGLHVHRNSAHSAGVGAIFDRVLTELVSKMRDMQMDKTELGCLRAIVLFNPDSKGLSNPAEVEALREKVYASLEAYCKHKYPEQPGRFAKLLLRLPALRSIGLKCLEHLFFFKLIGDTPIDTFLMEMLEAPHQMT
Procedure, shortened: as §1

Binder | binding signal
B1 | 6.35 PBM z-score against 500 random probes
B3 | 5.45 PBM z-score against 500 random probes
B4 | 5.51 PBM z-score against 500 random probes

Each binder was assayed against LXRa:RXRa (Homo sapiens, UniProt Q13133;P19793 full;full) in the same assay as above. Details: tags: His kept;His cleaved; copies: 1;1; label: surface-attached array probe.
LXRa:RXRa, sequence (Q13133 whole entry, chain 1 of 2): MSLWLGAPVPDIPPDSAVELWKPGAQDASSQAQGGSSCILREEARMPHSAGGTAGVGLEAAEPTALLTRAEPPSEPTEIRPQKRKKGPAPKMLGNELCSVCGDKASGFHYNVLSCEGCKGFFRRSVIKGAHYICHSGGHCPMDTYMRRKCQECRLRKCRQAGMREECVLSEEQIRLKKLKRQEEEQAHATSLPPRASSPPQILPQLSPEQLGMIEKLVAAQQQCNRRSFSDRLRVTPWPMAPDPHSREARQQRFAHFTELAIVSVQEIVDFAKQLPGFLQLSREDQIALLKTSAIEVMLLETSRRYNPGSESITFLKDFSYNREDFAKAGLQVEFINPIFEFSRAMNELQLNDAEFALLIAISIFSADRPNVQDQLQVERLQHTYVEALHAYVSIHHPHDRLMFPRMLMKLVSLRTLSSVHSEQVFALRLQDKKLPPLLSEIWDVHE
LXRa:RXRa, sequence (P19793 whole entry, chain 2 of 2): as the sequence (P19793 whole entry, chain 2 of 2) above
Procedure, shortened: as §1

Binder | binding signal
B5 | -0.53 PBM z-score against 500 random probes
B1 | 7.08 PBM z-score against 500 random probes
B6 | 8.11 PBM z-score against 500 random probes
B4 | 6.7 PBM z-score against 500 random probes

The binders below were run against LXRb:RXRa (Homo sapiens, UniProt P55055;P19793 full;full) in the same assay as above. Details: tags: His kept;His cleaved; copies: 1;1; label: surface-attached array probe.
LXRb:RXRa, sequence (P55055 whole entry, chain 1 of 2): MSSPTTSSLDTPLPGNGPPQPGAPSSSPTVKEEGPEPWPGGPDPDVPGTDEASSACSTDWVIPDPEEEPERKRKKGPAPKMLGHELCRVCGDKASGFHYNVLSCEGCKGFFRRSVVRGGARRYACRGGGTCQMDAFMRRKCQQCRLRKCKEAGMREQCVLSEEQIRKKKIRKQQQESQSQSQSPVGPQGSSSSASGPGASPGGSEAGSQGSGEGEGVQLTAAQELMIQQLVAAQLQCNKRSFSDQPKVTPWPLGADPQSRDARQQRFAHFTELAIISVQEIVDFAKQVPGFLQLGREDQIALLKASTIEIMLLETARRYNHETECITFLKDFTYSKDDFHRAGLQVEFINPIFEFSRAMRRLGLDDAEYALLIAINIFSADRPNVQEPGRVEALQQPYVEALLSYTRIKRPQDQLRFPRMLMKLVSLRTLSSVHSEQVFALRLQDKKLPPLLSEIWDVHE
LXRb:RXRa, sequence (P19793 whole entry, chain 2 of 2): as the sequence (P19793 whole entry, chain 2 of 2) above
Procedure, shortened: as §1

Binder | binding signal
B1 | 6.98 PBM z-score against 500 random probes
B6 | 7.35 PBM z-score against 500 random probes
B4 | 5.94 PBM z-score against 500 random probes

These binders were tested against PPARa:RXRa (Homo sapiens, UniProt Q07869;P19793 full;full) in the same assay as above. Details: tags: GST kept;His cleaved; copies: 1;1; label: surface-attached array probe.
Procedure, shortened: as §1

Binder | binding signal
B1 | 7.33 PBM z-score against 500 random probes
B2 | 7.23 PBM z-score against 500 random probes
B7 | -0.4 PBM z-score against 500 random probes

These binders were tested against VDR:RXRa (Homo sapiens, UniProt P11473;P19793 full;full) in the same assay as above. Details: tags: His kept;His cleaved; copies: 1;1; label: surface-attached array probe.
Procedure, shortened: as §1

Binder | binding signal
B8 | 0.49 PBM z-score against 500 random probes
B1 | 7.24 PBM z-score against 500 random probes
B6 | 6.94 PBM z-score against 500 random probes
B4 | 8.68 PBM z-score against 500 random probes

Each binder was assayed against RARa:RXRa (Homo sapiens, UniProt P10276;P19793 full;full) in the same assay as above. Details: tags: His kept;His cleaved; copies: 1;1; label: surface-attached array probe.
RARa:RXRa, sequence (P10276 whole entry, chain 1 of 2): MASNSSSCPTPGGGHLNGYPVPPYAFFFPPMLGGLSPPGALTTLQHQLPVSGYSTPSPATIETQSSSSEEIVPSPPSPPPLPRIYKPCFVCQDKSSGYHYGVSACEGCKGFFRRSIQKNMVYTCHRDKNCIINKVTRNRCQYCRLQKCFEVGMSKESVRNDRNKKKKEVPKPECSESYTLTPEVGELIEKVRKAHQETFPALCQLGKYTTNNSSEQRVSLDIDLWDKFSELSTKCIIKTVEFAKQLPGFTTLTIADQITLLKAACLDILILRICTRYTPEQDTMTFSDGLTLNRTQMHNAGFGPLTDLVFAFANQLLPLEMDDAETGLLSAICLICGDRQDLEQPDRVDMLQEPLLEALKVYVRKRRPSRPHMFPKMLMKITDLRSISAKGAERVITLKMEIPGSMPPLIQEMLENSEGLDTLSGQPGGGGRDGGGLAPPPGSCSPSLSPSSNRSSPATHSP
RARa:RXRa, sequence (P19793 whole entry, chain 2 of 2): as the sequence (P19793 whole entry, chain 2 of 2) above
Procedure, shortened: as §1

Binder | binding signal
B9 | 3.37 PBM z-score against 500 random probes
B10 | -0.13 PBM z-score against 500 random probes
B11 | -0.57 PBM z-score against 500 random probes
B12 | 7.16 PBM z-score against 500 random probes
B13 | 4.46 PBM z-score against 500 random probes

The binders below were run against PXR:RXRa (Homo sapiens, UniProt O75469;P19793 full;full) in the same assay as above. Details: tags: His kept;His cleaved; copies: 1;1; label: surface-attached array probe.
Procedure, shortened: as §1

Binder | binding signal
B14 | -0.88 PBM z-score against 500 random probes
B1 | 7.24 PBM z-score against 500 random probes
B6 | 6.59 PBM z-score against 500 random probes
B4 | 6.83 PBM z-score against 500 random probes
B7 | -0.8 PBM z-score against 500 random probes
B15 | -0.22 PBM z-score against 500 random probes

Each binder was assayed against FXR:RXRa (Homo sapiens, UniProt Q96RI1;P19793 full;full) in the same assay as above. Details: tags: His kept;His cleaved; copies: 1;1; label: surface-attached array probe.
Procedure, shortened: as §1

Binder | binding signal
B1 | 8.68 PBM z-score against 500 random probes
B4 | 8.19 PBM z-score against 500 random probes
B7 | -0.38 PBM z-score against 500 random probes

The binders below were run against RXRa (Homo sapiens, UniProt P19793) (assay: no ligand; PBM; 180 nM; PBS pH 7.4, 2% milk, 0.02% Triton X-100, 1 mM DTT, BSA, 0.4 mg/ml salmon testes DNA). Details: tags: His cleaved; chain copies: 2; label: surface-attached array probe.
RXRa, sequence (P19793 whole entry): as the sequence (P19793 whole entry, chain 2 of 2) above

Binder | binding signal
B14 | -1.01 PBM z-score against 500 random probes
B1 | 9.6 PBM z-score against 500 random probes
B16 | -0.53 PBM z-score against 500 random probes

These binders were tested against PPARg:RXRa (Homo sapiens, UniProt P37231;P19793 full;full) (assay: no ligand; PBM; 180 nM : 90 nM RXRa; PBS pH 7.4, 2% milk, 0.02% Triton X-100, 1 mM DTT, BSA, 0.4 mg/ml salmon testes DNA). Details: tags: His kept;His cleaved; copies: 1;1; label: surface-attached array probe.

Binder | binding signal
B5 | -0.07 PBM z-score against 500 random probes
B8 | -0.75 PBM z-score against 500 random probes
B14 | -0.31 PBM z-score against 500 random probes
B3 | 4 PBM z-score against 500 random probes
B17 | -0.12 PBM z-score against 500 random probes
B2 | 10.8 PBM z-score against 500 random probes
B18 | 0.27 PBM z-score against 500 random probes
B19 | 0.43 PBM z-score against 500 random probes
B7 | -0.45 PBM z-score against 500 random probes
B16 | -0.24 PBM z-score against 500 random probes
B15 | 0.13 PBM z-score against 500 random probes

These binders were tested against THRa:RXRa (Homo sapiens, UniProt P10827;P19793 full;full) (assay: no ligand; PBM; 90 nM : 90 nM RXRa; PBS pH 7.4, 2% milk, 0.02% Triton X-100, 1 mM DTT, BSA, 0.4 mg/ml salmon testes DNA). Details: tags: His kept;His cleaved; copies: 1;1; label: surface-attached array probe.

Binder | binding signal
B9 | 4.78 PBM z-score against 500 random probes
B5 | -0.17 PBM z-score against 500 random probes
B8 | -0.04 PBM z-score against 500 random probes
B10 | -0.34 PBM z-score against 500 random probes
B11 | -0.26 PBM z-score against 500 random probes
B14 | -0.49 PBM z-score against 500 random probes
B1 | 5.13 PBM z-score against 500 random probes
B12 | 4.78 PBM z-score against 500 random probes
B3 | 5.15 PBM z-score against 500 random probes
B17 | -0.05 PBM z-score against 500 random probes
B6 | 4.77 PBM z-score against 500 random probes
B4 | 4.82 PBM z-score against 500 random probes
B2 | 5.07 PBM z-score against 500 random probes
B18 | -0.54 PBM z-score against 500 random probes
B13 | 4.89 PBM z-score against 500 random probes
B19 | 0.33 PBM z-score against 500 random probes
B7 | -0.6 PBM z-score against 500 random probes
B16 | -1.02 PBM z-score against 500 random probes
B15 | -0.3 PBM z-score against 500 random probes
